These are literature values, as cited in paper PMC12990809.

What all share (assay): pulldown
Conditions in all cases: 20 nM protein, 1.5 uM RNA pool; 20 mM HEPES pH 7.8, 70 mM KCl, 10 mM NaCl, 10% glycerol, 2 mM DTT, 0.1 ug/uL BSA; 30 min, 4 C (protocol of this paper; not …); cited from earlier work

In data set [1] the target is T1, Syp G309D (Drosophila melanogaster) (UniProt Q7KSA0).
T1 sequence: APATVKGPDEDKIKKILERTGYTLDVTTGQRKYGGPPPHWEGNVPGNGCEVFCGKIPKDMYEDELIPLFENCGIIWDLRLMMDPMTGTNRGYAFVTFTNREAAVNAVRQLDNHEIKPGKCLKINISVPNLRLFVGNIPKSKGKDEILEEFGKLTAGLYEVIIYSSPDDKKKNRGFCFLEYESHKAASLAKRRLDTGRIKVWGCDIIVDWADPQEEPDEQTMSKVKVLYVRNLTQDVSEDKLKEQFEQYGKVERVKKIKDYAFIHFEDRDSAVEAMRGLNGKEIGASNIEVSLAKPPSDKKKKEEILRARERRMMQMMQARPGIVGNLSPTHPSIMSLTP

Data set [2] addresses T2, how (Drosophila melanogaster) (UniProt O01367).
T2 sequence: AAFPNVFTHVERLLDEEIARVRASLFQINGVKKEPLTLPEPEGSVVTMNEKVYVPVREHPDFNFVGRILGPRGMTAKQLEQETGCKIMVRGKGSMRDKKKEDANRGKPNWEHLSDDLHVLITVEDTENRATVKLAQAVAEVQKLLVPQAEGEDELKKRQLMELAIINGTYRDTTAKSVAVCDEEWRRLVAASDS

Data set [3] deals with T3, cpo (Drosophila melanogaster) (UniProt Q01617).
T3 sequence: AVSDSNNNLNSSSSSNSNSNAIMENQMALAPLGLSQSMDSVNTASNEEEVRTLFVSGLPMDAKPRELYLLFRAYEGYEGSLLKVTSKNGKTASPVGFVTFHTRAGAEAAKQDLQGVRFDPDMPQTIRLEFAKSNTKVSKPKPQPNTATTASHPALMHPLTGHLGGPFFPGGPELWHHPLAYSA

Data set [4] has as its target T4, Rbp1-like (Drosophila melanogaster) (UniProt M9MS48).
T4 sequence: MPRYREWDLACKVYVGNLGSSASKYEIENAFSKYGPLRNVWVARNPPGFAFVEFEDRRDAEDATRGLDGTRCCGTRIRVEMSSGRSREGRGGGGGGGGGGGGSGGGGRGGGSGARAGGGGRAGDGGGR

For another data set, the target named is ZCRB1 (Homo sapiens) (UniProt Q8TBF4).
Sequence of ZCRB1 (Homo sapiens) (Q8TBF4 1-132): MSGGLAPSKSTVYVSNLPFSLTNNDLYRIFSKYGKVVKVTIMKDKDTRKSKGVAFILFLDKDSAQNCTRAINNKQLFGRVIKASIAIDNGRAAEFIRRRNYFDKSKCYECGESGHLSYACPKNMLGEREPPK
A further data set addresses SRSF1 (Homo sapiens) (UniProt Q07955).
Another data set deals with T5, ZC3H10 (Homo sapiens) (UniProt Q96K80).
T5 sequence: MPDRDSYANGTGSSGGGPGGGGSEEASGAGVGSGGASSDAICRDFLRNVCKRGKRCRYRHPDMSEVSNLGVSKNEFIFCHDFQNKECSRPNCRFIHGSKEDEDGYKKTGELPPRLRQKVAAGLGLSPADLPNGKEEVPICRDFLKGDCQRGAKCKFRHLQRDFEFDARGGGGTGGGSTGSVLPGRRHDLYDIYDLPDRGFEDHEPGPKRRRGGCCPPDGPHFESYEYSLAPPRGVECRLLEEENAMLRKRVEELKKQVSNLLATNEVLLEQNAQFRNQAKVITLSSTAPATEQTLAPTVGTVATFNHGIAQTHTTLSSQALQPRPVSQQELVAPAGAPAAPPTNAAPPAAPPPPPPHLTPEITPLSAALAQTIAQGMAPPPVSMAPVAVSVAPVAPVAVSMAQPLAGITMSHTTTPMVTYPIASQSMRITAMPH

For data set [5], the target named is Hrb98DE (Drosophila melanogaster) (UniProt P07909).
Sequence of Hrb98DE (Drosophila melanogaster) (P07909 whole entry): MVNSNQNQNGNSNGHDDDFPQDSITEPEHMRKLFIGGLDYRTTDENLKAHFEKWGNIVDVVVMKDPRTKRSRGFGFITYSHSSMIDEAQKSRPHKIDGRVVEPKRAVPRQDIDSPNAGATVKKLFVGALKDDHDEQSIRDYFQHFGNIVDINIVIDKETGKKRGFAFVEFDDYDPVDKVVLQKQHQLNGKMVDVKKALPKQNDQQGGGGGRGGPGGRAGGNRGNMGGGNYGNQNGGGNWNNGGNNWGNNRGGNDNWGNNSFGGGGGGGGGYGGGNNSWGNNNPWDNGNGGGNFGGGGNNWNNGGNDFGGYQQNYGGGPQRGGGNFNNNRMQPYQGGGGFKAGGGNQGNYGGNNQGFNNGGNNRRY
In data set [6] the target is T6, msi (Drosophila melanogaster) (UniProt H9ZJL0).
T6 sequence: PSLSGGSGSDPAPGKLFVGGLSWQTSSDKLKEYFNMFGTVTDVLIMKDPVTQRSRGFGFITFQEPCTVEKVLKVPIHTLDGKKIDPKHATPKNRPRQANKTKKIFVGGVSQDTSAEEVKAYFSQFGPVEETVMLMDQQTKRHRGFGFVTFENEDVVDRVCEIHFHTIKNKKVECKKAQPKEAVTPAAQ

Data set [7] addresses T7, bru-3 (Drosophila melanogaster) (UniProt Q7K305).
T7 sequence: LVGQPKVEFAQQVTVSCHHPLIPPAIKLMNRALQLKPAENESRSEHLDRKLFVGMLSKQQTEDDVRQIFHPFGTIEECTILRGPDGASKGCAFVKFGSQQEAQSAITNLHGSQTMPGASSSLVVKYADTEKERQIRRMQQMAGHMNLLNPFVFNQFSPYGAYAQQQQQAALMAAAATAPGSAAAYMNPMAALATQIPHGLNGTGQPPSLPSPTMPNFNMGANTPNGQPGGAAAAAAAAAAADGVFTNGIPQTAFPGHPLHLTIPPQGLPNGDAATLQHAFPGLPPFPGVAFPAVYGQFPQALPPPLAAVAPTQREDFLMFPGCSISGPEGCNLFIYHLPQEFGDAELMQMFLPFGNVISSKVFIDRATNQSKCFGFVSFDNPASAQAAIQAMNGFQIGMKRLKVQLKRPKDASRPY

Data set [8] has as its target T8, A2bp1 (Drosophila melanogaster) (UniProt Q9VT99).
T8 sequence: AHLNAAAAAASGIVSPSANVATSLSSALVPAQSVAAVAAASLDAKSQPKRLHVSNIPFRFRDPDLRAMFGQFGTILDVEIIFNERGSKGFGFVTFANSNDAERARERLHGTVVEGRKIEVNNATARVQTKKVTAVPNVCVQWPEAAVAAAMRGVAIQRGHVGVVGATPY

Data set [9] deals with Rbp9 (Drosophila melanogaster) (UniProt A2RVE5).
Sequence of Rbp9 (Drosophila melanogaster) (A2RVE5 entry or part of it): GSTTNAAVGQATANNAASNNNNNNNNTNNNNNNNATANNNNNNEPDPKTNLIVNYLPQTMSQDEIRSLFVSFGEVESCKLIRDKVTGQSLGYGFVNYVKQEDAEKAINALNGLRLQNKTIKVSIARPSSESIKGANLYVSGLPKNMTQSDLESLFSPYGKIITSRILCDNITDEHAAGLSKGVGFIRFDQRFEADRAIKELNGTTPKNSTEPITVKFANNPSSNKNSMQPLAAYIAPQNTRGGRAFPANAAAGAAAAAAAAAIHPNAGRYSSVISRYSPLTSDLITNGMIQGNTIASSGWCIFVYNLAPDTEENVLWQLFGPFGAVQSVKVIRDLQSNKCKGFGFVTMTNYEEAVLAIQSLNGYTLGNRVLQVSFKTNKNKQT
Data set [10] addresses T9, orb2 (Drosophila melanogaster) (UniProt Q9VSR3).
T9 sequence: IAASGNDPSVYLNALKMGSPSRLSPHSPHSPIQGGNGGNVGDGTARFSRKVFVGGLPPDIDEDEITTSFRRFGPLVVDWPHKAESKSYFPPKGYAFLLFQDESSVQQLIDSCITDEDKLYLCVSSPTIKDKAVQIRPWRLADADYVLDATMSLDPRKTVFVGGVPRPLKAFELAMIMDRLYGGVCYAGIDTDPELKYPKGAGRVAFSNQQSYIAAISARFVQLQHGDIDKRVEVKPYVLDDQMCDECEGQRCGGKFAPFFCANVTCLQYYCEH

Data set [11] concerns the target T10, Sxl (Drosophila melanogaster) (UniProt P19339).
T10 sequence: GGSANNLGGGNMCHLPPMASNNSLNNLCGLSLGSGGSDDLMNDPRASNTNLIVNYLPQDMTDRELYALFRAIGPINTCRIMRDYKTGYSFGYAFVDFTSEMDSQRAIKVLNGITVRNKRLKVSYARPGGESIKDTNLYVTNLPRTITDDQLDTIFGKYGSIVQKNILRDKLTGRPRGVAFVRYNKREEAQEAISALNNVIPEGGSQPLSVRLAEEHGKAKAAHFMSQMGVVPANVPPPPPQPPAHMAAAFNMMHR

Data set [12] addresses fne (Drosophila melanogaster) (UniProt Q7KIS3).
The target of data set [13] is T11, elav (Drosophila melanogaster) (UniProt P16914).
T11 sequence: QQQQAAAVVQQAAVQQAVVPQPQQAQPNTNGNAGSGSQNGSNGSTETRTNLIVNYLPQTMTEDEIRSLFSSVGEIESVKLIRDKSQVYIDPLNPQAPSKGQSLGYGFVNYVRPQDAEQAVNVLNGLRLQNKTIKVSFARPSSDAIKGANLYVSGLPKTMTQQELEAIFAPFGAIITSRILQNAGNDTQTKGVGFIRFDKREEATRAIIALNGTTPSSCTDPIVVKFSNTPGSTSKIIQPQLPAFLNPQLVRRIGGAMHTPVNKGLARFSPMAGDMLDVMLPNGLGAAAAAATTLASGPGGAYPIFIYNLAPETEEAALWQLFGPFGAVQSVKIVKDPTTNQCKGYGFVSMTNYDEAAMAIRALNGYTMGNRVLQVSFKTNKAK

Sequence of fne (Drosophila melanogaster) (Q7KIS3 entry or part of it): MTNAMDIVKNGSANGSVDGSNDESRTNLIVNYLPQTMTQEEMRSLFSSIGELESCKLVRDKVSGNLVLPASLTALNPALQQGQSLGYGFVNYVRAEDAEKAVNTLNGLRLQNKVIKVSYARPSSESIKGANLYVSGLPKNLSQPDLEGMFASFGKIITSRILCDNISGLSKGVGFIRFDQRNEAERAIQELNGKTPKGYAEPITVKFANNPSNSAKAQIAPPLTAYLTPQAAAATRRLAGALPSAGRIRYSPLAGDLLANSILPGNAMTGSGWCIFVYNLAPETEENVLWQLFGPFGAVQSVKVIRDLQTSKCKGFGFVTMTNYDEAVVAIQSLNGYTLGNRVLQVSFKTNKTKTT
Sequence of SRSF1 (Homo sapiens) (Q07955 1-202): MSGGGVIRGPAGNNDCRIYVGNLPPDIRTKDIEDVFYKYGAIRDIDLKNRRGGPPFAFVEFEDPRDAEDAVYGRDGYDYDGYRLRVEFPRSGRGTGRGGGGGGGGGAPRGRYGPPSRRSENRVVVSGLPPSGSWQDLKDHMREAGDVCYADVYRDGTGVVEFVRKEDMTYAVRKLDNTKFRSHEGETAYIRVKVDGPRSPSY

For the substance AAAUU [RNAcompete motif RNCMPT00131], the binding signal (z-score (mean of top ten 7-mers)) in data set [1] was 13.5.
With ACUAAC [RNAcompete motif RNCMPT00118], in [2], the binding signal (z-score (mean of top ten 7-mers)) is 25.4.
For the substance AGCAC [RNAcompete motif RNCMPT00133], the binding signal (z-score (mean of top ten 7-mers)) in data set [3] is 12.9.
As for CAUCAUCG [RNAcompete motif RNCMPT00127], the binding signal (z-score (mean of top ten 7-mers)) in data set [4] is 10.7.
With GAAUUAAG [RNAcompete motif RNCMPT00087], the binding signal (z-score (mean of top ten 7-mers)) with ZCRB1 (Homo sapiens) is 12.
In the case of GAGGAGC [RNAcompete motif RNCMPT00163], the binding signal (z-score (mean of top ten 7-mers)) in the data set with SRSF1 (Homo sapiens) was 11.3.
GCAGCGCG [RNAcompete motif RNCMPT00085]: in the data set with ZC3H10 (Homo sapiens), the binding signal (z-score (mean of top ten 7-mers)) was 16.6.
On to GGUAGGG [RNAcompete motif RNCMPT00096], for which the binding signal (z-score (mean of top ten 7-mers)) in [5] was 21.8.
Regarding GUAGUU [RNAcompete motif RNCMPT00099], the binding signal (z-score (mean of top ten 7-mers)) in data set [6] is 11.6.
Take GUGUUGU [RNAcompete motif RNCMPT00122]: the binding signal (z-score (mean of top ten 7-mers)) in data set [7] was 20.4.
On to UGCAUG [RNAcompete motif RNCMPT00123], for which the binding signal (z-score (mean of top ten 7-mers)) in [8] is 21.3.
As for UUUNGUU [RNAcompete motif RNCMPT00132], the binding signal (z-score (mean of top ten 7-mers)) in data set [9] is 15.5.
Turning to UUUUUUG [RNAcompete motif RNCMPT00126], the binding signal (z-score (mean of top ten 7-mers)) in data set [10] is 15.9.
Turning to UUUUUUU [RNAcompete motif RNCMPT00119], in [11], the binding signal (z-score (mean of top ten 7-mers)) is 17.2.
Regarding UUUUUUU [RNAcompete motif RNCMPT00120], in data set [12], the binding signal (z-score (mean of top ten 7-mers)) was 12.7.
UUUUUUU [RNAcompete motif RNCMPT00121]: the binding signal (z-score (mean of top ten 7-mers)) in data set [13] is 17.2.
